One data set concerns O=P(O)(O)OC[C@H](O)CO. Nature of the data set: purified protein. The note with it: 5 mM MgCl2, 50 mM Tris-HCl pH 7.0, bis(cyclohexylammonium) salt.
The next data set has as its target T1, GlpR (Pseudomonas aeruginosa, UniProt Q51391).
T1 construct: recombinant from pETDuet-glpR in E. coli BL21(DE3), HisTrap HP purified
T1 sequence (Q51391 1-251): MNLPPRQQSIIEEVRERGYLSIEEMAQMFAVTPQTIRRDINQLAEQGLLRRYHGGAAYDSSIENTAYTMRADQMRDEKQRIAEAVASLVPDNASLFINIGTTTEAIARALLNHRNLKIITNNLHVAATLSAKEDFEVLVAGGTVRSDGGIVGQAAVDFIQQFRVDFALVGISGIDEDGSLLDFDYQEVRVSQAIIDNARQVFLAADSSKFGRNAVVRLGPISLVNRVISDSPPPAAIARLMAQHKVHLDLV
In words: EMSA, prevention of GlpR binding to glpFK and glpD promoter DNA. The note with it: 10 mM G3P (lithium salt), 500 nM GlpR, 3.5 nM DNA probe, pH 7.4, 30 °C; effector (inducer). (Mobility shift assays separate free from complexed probe on a gel.)

Substrate in data set [1]: O=P(O)(O)OC[C@H](O)CO
Nature of the data set: released inorganic phosphate, Michaelis-Menten regression. The class given is biochemical, Pseudomonas aeruginosa. The conditions noted are these: 5 mM MgCl2, 50 mM Tris-HCl pH 7.0, bis(cyclohexylammonium) salt.

Consider three molecules from PMC9765544, “Metabolic Mechanism and Physiological Role of Glycerol 3-Phosphate in Pseudomonas aeruginosa PAO1” (mBio, 2022).

As usually defined, the Km is the substrate concentration at which the rate is half of its maximum.

Turning to PA3172 (Pseudomonas aeruginosa PAO1), the Km with O=P(O)(O)OC[C@H](O)CO was 5.634 ± 0.209 mM.
Regarding `O=P(O)(O)OC[C@H](O)CO` [G3P], the “EMSA, prevention of GlpR binding to glpFK and glpD promoter DNA” value on GlpR is “G3P prevents GlpR binding to the glpFK (D) and glpD (E) promoter regions”.

B1: PA0562 (Pseudomonas aeruginosa PAO1) (protein)
chain: MPHPIDALISDCDGVLVDSEVIAERVMYEALSAYAPLEELQRLLEGTFGLTSRDILDRVEKHFGLRIPDSFNREVRQRSEEMVAQVQPIPGAREALLALDLPVAVASNSRRHSLERSLARAGLSELIGERLASADMVALPKPAPDVYLHAASLLGVAPERCLVVEDSSTGTRAALAAGMRVIGFVGAGHIPAGHAEVLRELGAIAIVEHMRELPETVARLRRTV
For the molecule B1, the Km in data set [1] is listed as 8.937 ± 1.350 mM.
